From patent publication US20030186281A1, “Modified tetracycline repressor protein compositions and methods of use” (priority 2001, published 2003)
Numbering of substitutions follows the chain as printed. In names and notes the source's numbering stands.

B1: TetRrev96/99-8: revTetR(BD) G96N V99H (protein)
chain: MSRLDKSKVINSALELLNEVGIEGLTTRKLAQKLGVEQPTLYWHVKNKRALLDALAVEILARHHDYSLPAAGESWQSFLRNNAMSFRRALLRYRDNAKHHLGTRPDEKQYDTVETQLRFMTENGFSLRDGLYAISAVSHFTLGAVLEQQEHTAALTDRPAAPDENLPPLLREALQIMDSDDGEQAFLHGLESLIRGFEVQLTALLQIV
modifications: Modified tetracycline repressor
notes: revTetR(BD) G96N V99H
B2: TetRrevAtc4-48: revTetR(BD) D53N A54S L55L A56P V57V A61A R62L (protein)
chain: B1 chain with D53N, A54S, A56P, V57P, R62L, N96G, H99V
modifications: Modified tetracycline repressor
notes: revTetR(BD) D53N A54S L55L A56P V57V A61A R62L
B3: TetRrevAtc4-43: revTetR(BD) L52V A56V V57L I59T A61S (protein)
chain: B1 chain with L52V, A56V, V57L, I59T, A61S, N96G, H99V
modifications: Modified tetracycline repressor
notes: revTetR(BD) L52V A56V V57L I59T A61S
B4: TetRrevAtc4-21: revTetR(BD) K6K D53F L55L V57L I59S A61S (protein)
chain: B1 chain with D53F, V57L, I59S, A61S, N96G, H99V
modifications: Modified tetracycline repressor
notes: revTetR(BD) K6K D53F L55L V57L I59S A61S
B5: TetRrev96P: revTetR(BD) G96P (protein)
chain: B1 chain with N96P, H99V
modifications: Modified tetracycline repressor
notes: revTetR(BD) G96P
B6: TetRrevAtc4-40: revTetR(BD) A56P L60L A61G R62R (protein)
chain: B1 chain with A56P, A61G, N96G, H99V
modifications: Modified tetracycline repressor
notes: revTetR(BD) A56P L60L A61G R62R
B7: TetRrevAtc4-4: revTetR(BD) I59S R62S (protein)
chain: B1 chain with I59S, R62S, N96G, H99V
modifications: Modified tetracycline repressor
notes: revTetR(BD) I59S R62S
B8: TetRrev96/99-11: revTetR(BD) G96R V99Y (protein)
chain: B1 chain with N96R, H99Y
modifications: Modified tetracycline repressor
notes: revTetR(BD) G96R V99Y
B9: TetRrevAtc4-47: revTetR(BD) L51L E58A I59N H63Y (protein)
chain: B1 chain with E58A, I59N, A61E, H63Y, H64N, N96G, H99V
modifications: Modified tetracycline repressor
notes: revTetR(BD) L51L E58A I59N H63Y
B10: TetRrevAtc4-23: revTetR(BD) A50D L51V L52Q A54A L55L A61S (protein)
chain: B1 chain with A50D, L51V, L52Q, A61S, N96G, H99V
modifications: Modified tetracycline repressor
notes: revTetR(BD) A50D L51V L52Q A54A L55L A61S
B11: TetRrev96/99-17: revTetR(BD) G96T V99K (protein)
chain: B1 chain with N96T, H99K
modifications: Modified tetracycline repressor
notes: revTetR(BD) G96T V99K
B12: TetRrev96/99-16: revTetR(BD) G96P V99Y (protein)
chain: B1 chain with N96P, H99Y
modifications: Modified tetracycline repressor
notes: revTetR(BD) G96P V99Y
B13: TetRrev96/99-9: revTetR(BD) G96H V99N (protein)
chain: B1 chain with N96H, H99N
modifications: Modified tetracycline repressor
notes: revTetR(BD) G96H V99N
B14: TetRrev96/99-20: revTetR(BD) G96S V99K (protein)
chain: B1 chain with N96S, H99K
modifications: Modified tetracycline repressor
notes: revTetR(BD) G96S V99K
B15: TetRrevAtc4-31: revTetR(BD) A50S D53Y A56G V57I H63Q (protein)
chain: B1 chain with A50S, D53Y, A54G, A56G, V57I, H63Q, N96G, H99V
modifications: Modified tetracycline repressor
notes: revTetR(BD) A50S D53Y A56G V57I H63Q
B16: TetRrevAtc4-28: revTetR(BD) V57V E58K L60V R62G (protein)
chain: B1 chain with E58K, L60V, R62G, N96G, H99V
modifications: Modified tetracycline repressor
notes: revTetR(BD) V57V E58K L60V R62G
B17: TetRrev96/99-13: revTetR(BD) G96T V99D (protein)
chain: B1 chain with N96T, H99D
modifications: Modified tetracycline repressor
notes: revTetR(BD) G96T V99D
B18: TetRrev96/99-10: revTetR(BD) G96N V99P (protein)
chain: B1 chain with H99P
modifications: Modified tetracycline repressor
notes: revTetR(BD) G96N V99P
B19: TetRrev96/99-14: revTetR(BD) G96N V99N (protein)
chain: B1 chain with H99N
modifications: Modified tetracycline repressor
notes: revTetR(BD) G96N V99N
B20: TetRrev96/99-19: revTetR(BD) G96R V99S (protein)
chain: B1 chain with N96R, H99S
modifications: Modified tetracycline repressor
notes: revTetR(BD) G96R V99S
B21: TetRrevAtc4-24: revTetR(BD) A56P V57A E58Q H63Q (protein)
chain: B1 chain with A56P, V57A, E58Q, H63Q, N96G, H99V
modifications: Modified tetracycline repressor
notes: revTetR(BD) A56P V57A E58Q H63Q
B22: TetRrevAtc4-22: revTetR(BD) R49H A56P V57L L60M (protein)
chain: B1 chain with R49H, A56P, V57L, L60M, N96G, H99V
modifications: Modified tetracycline repressor
notes: revTetR(BD) R49H A56P V57L L60M
B23: TetRrev96/99-18: revTetR(BD) G96T V99P (protein)
chain: B1 chain with N96T, H99P
modifications: Modified tetracycline repressor
notes: revTetR(BD) G96T V99P
B24: TetRrevAtc4-2: revTetR(BD) R49G L55L V57V E58N R62L H63Q (protein)
chain: B1 chain with R49G, E58N, R62L, H63Q, N96G, H99V
modifications: Modified tetracycline repressor
notes: revTetR(BD) R49G L55L V57V E58N R62L H63Q
B25: TetRrev96/99-15: revTetR(BD) G96P V99P (protein)
chain: B1 chain with N96P, H99P
modifications: Modified tetracycline repressor
notes: revTetR(BD) G96P V99P
B26: TetRrevAtc4-20: revTetR(BD) V57V E58K L60V A61T R62G (protein)
chain: B1 chain with E58K, L60V, A61T, R62G, N96G, H99V
modifications: Modified tetracycline repressor
notes: revTetR(BD) V57V E58K L60V A61T R62G
B27: TetRrevAtc4-25: revTetR(BD) K48K V57L E58V I59T L60F R62S (protein)
chain: B1 chain with V57L, E58V, I59T, L60F, R62S, N96G, H99V
modifications: Modified tetracycline repressor
notes: revTetR(BD) K48K V57L E58V I59T L60F R62S
B28: TetRrev96/99-12: revTetR(BD) G96H V99Q (protein)
chain: B1 chain with N96H, H99Q
modifications: Modified tetracycline repressor
notes: revTetR(BD) G96H V99Q

What follows are molecules tested on tet operator sequence (assay: β-galactosidase activity of a tetracycline-regulated promoter in transformed E. coli with revTetR, in the presence and absence of anhydrotetracycline (atc)). Settings: RevTetR isolate cultured in the absence of anhydrotetracycline (ATC).
Format: cell-based, Escherichia coli
How it was run: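 TetR(BD) chimera mutants (TetR(B) residues 1–50, TetR(D) 51–208) expressed in E. coli regulating a tet operator-controlled lacZ. β-Galactosidase measured in Miller units at 28 °C and 37 °C with and without anhydrotetracycline; reported as percent of maximal expression without Tet repressor.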

| Molecule | β-Galactosidase Activity, Cultured Without ATC |
| --- | --- |
| B1 | 103.657 |
| B2 | 110.179 |
| B3 | 99.61 |
| B4 | 104.757 |
| B5 | 24.1109 |
| B6 | 56.743 |
| B7 | 70.5665 |
| B8 | 97.6643 |
| B9 | 83.987 |
| B10 | 105.95 |
| B11 | 92.9198 |
| B12 | 93.7512 |
| B13 | 71.6829 |
| B14 | 81.8583 |
| B15 | 65.039 |
| B16 | 85.141 |
| B17 | 103.963 |
| B18 | 106.137 |
| B19 | 110.999 |
| B20 | 95.188 |
| B21 | 61.649 |
| B22 | 80.2859 |
| B23 | 85.7142 |
| B24 | 3.143 |
| B25 | 110.413 |
| B26 | 78.478 |
| B27 | 98.629 |
| B28 | 102.406 |

Same assay, conditions: RevTetR isolate cultured in the presence of anhydrotetracycline (ATC)

| Molecule | β-Galactosidase Activity, Cultured With ATC |
| --- | --- |
| B1 | 24.309 |
| B2 | 16.146 |
| B3 | 13.878 |
| B4 | 16.831 |
| B5 | 4.1882 |
| B6 | 14.428 |
| B7 | 2.5363 |
| B8 | 18.656 |
| B9 | 13.969 |
| B10 | 21.606 |
| B11 | 8.4558 |
| B12 | 9.8301 |
| B13 | 14.528 |
| B14 | 3.0074 |
| B15 | 2.181 |
| B16 | 4.217 |
| B17 | 16.95 |
| B18 | 20.797 |
| B19 | 14.693 |
| B20 | 7.4009 |
| B21 | 13.63 |
| B22 | 3.7584 |
| B23 | 7.5138 |
| B24 | 0.9516 |
| B25 | 14.218 |
| B26 | 8.048 |
| B27 | 12.116 |
| B28 | 18.841 |
